Data published in patent US20160137746A1, “METHODS FOR TREATING HIGH CARDIOVASCULAR RISK PATIENTS WITH HYPERCHOLESTEROLEMIA” (Sanofi Biotechnology, priority 2014, published 2016).
Like-named read-outs stand apart in the source and are kept apart here.

Assays:
[1] = test system: high cardiovascular risk patients with hypercholesterolemia; settings: in vivo
Protocol: (§1) Safety was assessed through adverse event (AE) reporting (including adjudicated cardiovascular events), laboratory analyses, and vital signs measurement. Since the LDL-C-lowering effects of PCSK9 inhibition on top of a statin are unknown, a number of AEs were defined as being of special interest and were monitored, including alanine aminotransferase abnormalities, allergic events, hemolytic anemia, pregnancy, overdose with study drug, neurologic events, ophthalmic events, and local injection site reactions. AEs were determined to be of special interest based on review of previous clinical trials, correspondence with regulatory authorities and the Data Monitoring Committee, the use of a monoclonal antibody in this study, and the route of drug administration.
(§2) AEs (including adjudicated cardiovascular events), laboratory parameters, and vital signs were reported descriptively, based on the safety population (all randomized patients who received at least 1 dose or partial dose of study treatment). The safety analysis focused on the treatment-emergent AE period defined as the time from the first double-blind dose to the last double-blind dose of the investigational product +70 days (10 weeks).
(§3) The safety population included all randomized patients who received at least one dose or part of a dose of the double-blind IMP.
(§4) Safety analyses were descriptive, performed on the safety population according to treatment actually received. For analysis of TEAE and PCSA, the safety analysis focused on the TEAE period defined as the time from the first dose of double-blind IMP up to 70 days after the last double-blind injection.

[2] = test system: high cardiovascular risk patients with hypercholesterolemia; settings: in vivo; remark: listed apart in the source
Protocol: (§5) Safety assessments during both studies were as follows. Safety was assessed through adverse event (AE) reporting (including adjudicated cardiovascular events), laboratory analyses, and vital signs measurement. Since the LDL-C-lowering effects of PCSK9 inhibition on top of a statin are unknown, a number of AEs were defined as being of special interest and were monitored, including alanine aminotransferase abnormalities, allergic events, hemolytic anemia, pregnancy, overdose with study drug, neurologic events, ophthalmic events, and local injection site reactions.
(§6) Safety Analyses were as follows. AEs (including adjudicated cardiovascular events), laboratory parameters, and vital signs were reported descriptively, based on the safety population (all randomized patients who received at least 1 dose or partial dose of study treatment). The safety analysis focused on the treatment-emergent AE period defined as the time from the first double-blind dose to the last double-blind dose of the investigational product +70 days (10 weeks).
as §3
(§7) Safety analyses were descriptive, performed on the safety population according to treatment actually received. For analysis of TEAE and PCSA, the safety analysis focused on the TEAE period defined as the time from the first dose of double-blind IMP administration (capsule or injection, whichever comes first) up to 70 days after the last double-blind injection.

[3] = test system: high cardiovascular risk patients with hypercholesterolemia; assay: ODYSSEY COMBO I: safety (TEAEs, adjudicated CV events, laboratory PCSA, low LDL-C)
Protocol: as §1, §2, §3, §4

[4] = test system: high cardiovascular risk patients with hypercholesterolemia; assay: ODYSSEY COMBO II: safety (TEAEs, adjudicated CV events, laboratory parameters, low LDL-C)
Protocol: as §5, §6, §3, §7

[5] = alirocumab patients with LDL-C <25 mg/dL
[6] = alirocumab patients with two consecutive LDL-C ≦25 mg/dL (n = 105), number (%) of patients
[7] = safety population at 52 weeks, all patients, number (%) of patients
[8] = treatment period, safety population

In the case of “Alirocumab: human anti-PCSK9 antibody; HCVR SEQ ID NO:1, LCVR SEQ ID NO:6; CDRs SEQ ID NOs 2/3/4/7/8/10”, the “SOC infections and infestations” value [1] is reported as 37.2%, the “Urinary tract infection (TEAE preferred term)” value [1] is reported as 13 (6.3) No. (%) of patients and the “TEAE preferred term: Upper respiratory tract infection” value [2] is reported as 31 (6.5). For the same substance, the “TEAE system organ class: Infections and infestations” value [2] was 130 (27.1), the “Ischemic events (within SOC Cardiac disorders)” value ([3]; TEAE period) was 9 events and the SAEs reported ([3]; TEAE period) was 12.6%. For the same substance, the “SOC Cardiac disorders” value ([3]; TEAE period) was 8.2%, the “SOC Metabolism and nutrition disorder” value ([3]; TEAE period) was 10.1% and the SOC eye disorders ([3]; TEAE period) was 4.3%. The Arthralgia rate ([3]; alirocumab group as a whole) was 3.9%, the “Invertebral disc protusion rate” value ([3]; alirocumab group as a whole) was 1.0% and the Myalgia rate ([3]; alirocumab group as a whole) was 3.4%. For the same substance, the Osteoarthritis rate ([3]; alirocumab group as a whole) was 3.9%, the Arthralgia rate [3, 5] was 5.1% and the “Invertebral disc protusion rate” value [3, 5] was 5.1%. For the same substance, the Myalgia rate [3, 5] was 7.7%, the Osteoarthritis rate [3, 5] was 7.7% and the “Patients with cardiovascular events that were positively adjudicated” value ([3]; as stated in text b249 (5 patients)) was 2.4%. For the same substance, the “PCSA: decrease of hemoglobin from baseline ≧20 g/L” value ([3]; in vivo) was 6.3%, the “PCSA: new cases of erythrocytes values ≧6 Tera/L” value ([3]; in vivo) was 2.5% and the “Patients with impaired glucose control at baseline classified as diabetic in the TEAE period” value ([3]; in vivo) was 7.4%. For the same substance, the “Patients with two consecutive calculated LDL-C values <25 mg/dL” value ([3]; in vivo) was 19.5%, the “Safety in patients with two consecutive calculated LDL-C <25 mg/dL” value ([3]; in vivo) was “No particular safety concern” and the “Asthma (general allergic reactions), cases” value ([3]; including 2 serious cases) was 5 (2.4%) No. (%). For the same substance, the “Deaths during treatment period” value ([3]; myocardial infarction and pulmonary embolism) was 1.0%, the Tolerability ([3]; overall results) was “generally well tolerated” and the “Time to the first calculated LDL-C value <15 mg/dL, mean (SD)” value ([3]; safety population) was 12.51 (6.83) weeks. The “Time to the first calculated LDL-C value <15 mg/dL, median” value ([3]; safety population) was 13.57 weeks, the “Time to the first calculated LDL-C value <25 mg/dL, mean (SD)” value ([3]; safety population) was 11.48 (9.72) weeks and the “Time to the first calculated LDL-C value <25 mg/dL, median” value ([3]; safety population) was 8.00 weeks. For the same substance, the “Any patients with treatment emergent cardiovascular events confirmed by adjudication” value ([3]; safety population, to week 52) was −6 (2.9) No. (%) of patients, the “Arthralgia (TEAE preferred term)” value ([3]; safety population, to week 52) was 8 (3.9) No. (%) of patients and the “Congestive heart failure requiring hospitalization, adjudicated” value ([3]; safety population, to week 52) was 0 No. (%) of patients. The “Coronary heart disease death (including undetermined cause), adjudicated” value ([3]; safety population, to week 52) was 1 (0.5) No. (%) of patients, the “Dizziness (TEAE preferred term)” value ([3]; safety population, to week 52) was 11 (5.3) No. (%) of patients and the “Fatal and non-fatal ischemic stroke (including stroke not otherwise specified), adjudicated” value ([3]; safety population, to week 52) was −2 (1.0) No. (%) of patients. The “Injection site reaction (TEAE preferred term)” value ([3]; safety population, to week 52) was 11 (5.3) No. (%) of patients, the “Ischemia driven coronary revascularization procedure, adjudicated” value ([3]; safety population, to week 52) was 3 (1.4) No. (%) of patients and the “Local injection site reactions (AE of special interest)” value ([3]; safety population, to week 52) was 11 (5.3) No. (%) of patients. For the same substance, the “Nasopharyngitis (TEAE preferred term)” value ([3]; safety population, to week 52) was 15 (7.2) No. (%) of patients, the “Neurocognitive disorders (AE of special interest)” value ([3]; safety population, to week 52) was 0 (0) No. (%) of patients and the “Neurological events (AE of special interest)” value ([3]; safety population, to week 52) was 5 (2.4) No. (%) of patients. For the same substance, the “Non-cardiac chest pain (TEAE preferred term)” value ([3]; safety population, to week 52) was 2 (1.0) No. (%) of patients, the “Non-fatal myocardial infarction, adjudicated” value ([3]; safety population, to week 52) was 1 (0.5) No. (%) of patients and the “Potential general allergic reaction events (AE of special interest)” value ([3]; safety population, to week 52) was 18 (8.7) No. (%) of patients. The “Sinusitis (TEAE preferred term)” value ([3]; safety population, to week 52) was 11 (5.3) No. (%) of patients, the “TEAE leading to death” value ([3]; safety population, to week 52) was 2 (1.0) No. (%) of patients and the TEAEs ([3]; safety population, to week 52) was 157 (75.8) No. (%) of patients. For the same substance, the “TEAEs leading to discontinuation” value ([3]; safety population, to week 52) was 13 (6.3) No. (%) of patients, the “Treatment-emergent SAEs” value ([3]; safety population, to week 52) was 26 (12.6) No. (%) of patients and the “Local injection site reactions (AE of special interest)” value ([3]; safety population, to week 52, listed as alirocumab) was 11 (5.3%) No. (%) of patients. The “Laboratory parameters: Blood glucose increased” value [4, 6] was 1 (1.0), the “Laboratory parameters: Hemoglobin decreased” value [4, 6] was 3 (2.9) and the “Patients experiencing any TEAE” value [4, 6] was 72 (68.6). The “TEAE preferred term: Accidental overdose” value [4, 6] was 6 (5.7), the “TEAE preferred term: Angina pectoris” value [4, 6] was 2 (1.9) and the “TEAE preferred term: Arthralgia” value [4, 6] was 5 (4.8). The “TEAE preferred term: Dizziness” value [4, 6] was 5 (4.8), the “TEAE preferred term: Headache” value [4, 6] was 4 (3.8) and the “TEAE preferred term: Hypertension” value [4, 6] was 3 (2.9). For the same substance, the “TEAE preferred term: Influenza” value [4, 6] was 3 (2.9), the “TEAE preferred term: Myalgia” value [4, 6] was 4 (3.8) and the “TEAE preferred term: Nasopharyngitis” value [4, 6] was 10 (9.5). The “TEAE preferred term: Upper respiratory tract infection” value [4, 6] was 4 (3.8), the “TEAE system organ class: Blood and lymphatic system disorders” value [4, 6] was 4 (3.8) and the “TEAE system organ class: Cardiac disorders” value [4, 6] was 14 (13.3). The “TEAE system organ class: Eye disorders” value [4, 6] was 2 (1.9), the “TEAE system organ class: Gastrointestinal disorders” value [4, 6] was 19 (18.1) and the “TEAE system organ class: General disorders and administration site conditions” value [4, 6] was 10 (9.5). The “TEAE system organ class: Infections and infestations” value [4, 6] was 35 (33.3), the “TEAE system organ class: Injury, poisoning, and procedural complications” value [4, 6] was 10 (9.5) and the “TEAE system organ class: Investigations” value [4, 6] was 7 (6.7). The “TEAE system organ class: Metabolism and nutrition disorders” value [4, 6] was 6 (5.7), the “TEAE system organ class: Musculoskeletal and connective tissue disorders” value [4, 6] was 19 (18.1) and the “TEAE system organ class: Neoplasms, benign, malignant and unspecified (including cysts and polyps)” value [4, 6] was 5 (4.8). The “TEAE system organ class: Nervous system disorders” value [4, 6] was 17 (16.2), the “TEAE system organ class: Psychiatric disorders” value [4, 6] was 2 (1.9) and the “TEAE system organ class: Renal and urinary disorders” value [4, 6] was 7 (6.7). The “TEAE system organ class: Reproductive system and breast disorders” value [4, 6] was 4 (3.8), the “TEAE system organ class: Respiratory, thoracic, and mediastinal disorders” value [4, 6] was 11 (10.5) and the “TEAE system organ class: Skin and subcutaneous tissue disorders” value [4, 6] was 10 (9.5). For the same substance, the “TEAE system organ class: Vascular disorders” value [4, 6] was 4 (3.8), the Adjudicated cardiovascular events ([4]; in vivo) was 4.8% and the SOC gastrointestinal disorders ([4]; in vivo) was 15.0%. For the same substance, the “SOC musculoskeletal and connective tissue disorders” value ([4]; in vivo) was 19.6%, the “Safety in patients with two consecutive calculated LDL-C <25 mg/dL” value ([4]; in vivo) was “No particular safety concern” and the “Treatment-emergent local injection site reactions” value ([4]; in vivo) was 2.5%. The “Patients who experienced at least one TEAE” value ([4]; mean 58 weeks' follow-up) was 71.2%, the Serious adverse event ([4]; mean 58 weeks' follow-up) was 18.8% and the “TEAE leading to death” value ([4]; mean 58 weeks' follow-up) was 2 (0.4%) n (%). For the same substance, the “TEAEs leading to treatment discontinuation” value ([4]; mean 58 weeks' follow-up) was 7.5%, the Tolerability ([4]; overall results) was “well-tolerated” and the “Time to the first calculated LDL-C value <15 mg/dL, mean” value ([4]; safety population) was 15.07 weeks. The “Time to the first calculated LDL-C value <15 mg/dL, median” value ([4]; safety population) was 9.14 weeks, the “Time to the first calculated LDL-C value <25 mg/dL, mean” value ([4]; safety population) was 12.56 weeks and the “Time to the first calculated LDL-C value <25 mg/dL, median” value ([4]; safety population) was 5.14 weeks. For the same substance, the “Laboratory parameters: Blood glucose increased” value [4, 7] was 1 (0.2), the “Laboratory parameters: Hemoglobin decreased” value [4, 7] was 4 (0.8) and the “Patients experiencing any TEAE” value [4, 7] was 341 (71.2). The “TEAE preferred term: Accidental overdose” value [4, 7] was 30 (6.3), the “TEAE preferred term: Angina pectoris” value [4, 7] was 12 (2.5) and the “TEAE preferred term: Arthralgia” value [4, 7] was 19 (4.0). For the same substance, the “TEAE preferred term: Dizziness” value [4, 7] was 23 (4.8), the “TEAE preferred term: Headache” value [4, 7] was 21 (4.4) and the “TEAE preferred term: Hypertension” value [4, 7] was 18 (3.8). The “TEAE preferred term: Influenza” value [4, 7] was 17 (3.5), the “TEAE preferred term: Myalgia” value [4, 7] was 21 (4.4) and the “TEAE preferred term: Nasopharyngitis” value [4, 7] was 18 (3.8). For the same substance, the “TEAE system organ class: Blood and lymphatic system disorders” value [4, 7] was 11 (2.3), the “TEAE system organ class: Cardiac disorders” value [4, 7] was 60 (12.5) and the “TEAE system organ class: Eye disorders” value [4, 7] was 23 (4.8). For the same substance, the “TEAE system organ class: Gastrointestinal disorders” value [4, 7] was 72 (15.0), the “TEAE system organ class: General disorders and administration site conditions” value [4, 7] was 56 (11.7) and the “TEAE system organ class: Injury, poisoning, and procedural complications” value [4, 7] was 61 (12.7). The “TEAE system organ class: Investigations” value [4, 7] was 35 (7.3), the “TEAE system organ class: Metabolism and nutrition disorders” value [4, 7] was 27 (5.6) and the “TEAE system organ class: Musculoskeletal and connective tissue disorders” value [4, 7] was 94 (19.6). The “TEAE system organ class: Neoplasms, benign, malignant and unspecified (including cysts and polyps)” value [4, 7] was 15 (3.1), the “TEAE system organ class: Nervous system disorders” value [4, 7] was 77 (16.1) and the “TEAE system organ class: Psychiatric disorders” value [4, 7] was 21 (4.4). The “TEAE system organ class: Renal and urinary disorders” value [4, 7] was 21 (4.4), the “TEAE system organ class: Reproductive system and breast disorders” value [4, 7] was 12 (2.7) and the “TEAE system organ class: Respiratory, thoracic, and mediastinal disorders” value [4, 7] was 45 (9.4). For the same substance, the “TEAE system organ class: Skin and subcutaneous tissue disorders” value [4, 7] was 35 (7.3), the “TEAE system organ class: Vascular disorders” value [4, 7] was 33 (6.9) and the “Patients with 2 consecutive calculated LDL-C value <15 mg/dL” value [4, 8] was “(6.7%)”. The “Patients with 2 consecutive calculated LDL-C value <25 mg/dL” value [4, 8] was “(22.8%)” and the “Patients with 2 consecutive calculated LDL-C value <25 mg/dL” value ([4]; treatment period, safety population, listed as alirocumab) was 22.8%.
